Kd and n H data for four molecules are collected here from paper PMC3724859 (2013).

Where a chain is given by its changes, count along the chain named. No end group written: not given here.

The target in series [1] is EINsite peptides (Streptomyces coelicolor) (UniProt Q9KZP1). The settings on record: cited from earlier work.
Series [2] addresses EINsc H186D EIN (Streptomyces coelicolor) (UniProt Q9KZP1). The settings on record: cited from earlier work.
Series [3] has as its target N-terminal domain of enzyme I, phosphomimetic mutant EINH186D H186D (UniProt Q9KZP1). The experiment in a line: ITC (Auto-ITC200) in two buffers of different ionisation enthalpy. The settings on record: pH 7.0; 25 C; no added salt stated; 10 mM Mes (pH 7.0) and 10 mM Mops (pH 7.0); delta H ion 3.55 and 5.05 kcal/mol.
The target of series [4] is EINbsite peptide (active-site region of EIN^sc) (UniProt Q9KZP1). The series is described as above. The settings on record: pH 7.0; 25 C; no added salt stated; 10 mM Mes (pH 7.0) and 10 mM Mops (pH 7.0); delta H ion 3.55 and 5.05 kcal/mol.
Series [5] concerns the target N-terminal domain of enzyme I, wild type (EIN^sc) (UniProt Q9KZP1). The description is as above. The settings on record: pH 7.0; 25 C; no added salt stated; 10 mM Mes (pH 7.0) and 10 mM Mops (pH 7.0); delta H ion 3.55 and 5.05 kcal/mol.
Series [6] concerns the target EINosite peptide (HPr-contacting region of EIN^sc) (UniProt Q9KZP1). The series is described as above. The settings on record: pH 7.0; 25 C; no added salt stated; 10 mM Mes (pH 7.0) and 10 mM Mops (pH 7.0); delta H ion 3.55 and 5.05 kcal/mol.
For series [7], the target named is Histidine phosphocarrier protein HPr (HPr^sc). Kind of series: not stated here (value quoted from ref. [19]; presumably ITC in several buffers). The conditions noted are these: pH not stated; cited from earlier work.
Series [8] deals with T1, EINsc (enzyme I N-terminal domain) N-terminal domain (Streptomyces coelicolor, UniProt Q9KZP1).
T1 chain: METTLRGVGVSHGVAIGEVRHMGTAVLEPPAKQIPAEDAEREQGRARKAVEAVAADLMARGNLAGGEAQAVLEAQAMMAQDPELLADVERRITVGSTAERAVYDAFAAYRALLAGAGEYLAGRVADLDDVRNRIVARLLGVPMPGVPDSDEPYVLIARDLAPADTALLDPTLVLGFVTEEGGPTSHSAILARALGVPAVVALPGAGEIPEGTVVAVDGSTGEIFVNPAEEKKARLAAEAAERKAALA
Kind of series: ITC. Background: In ITC the heat of successive injections is recorded.

Series [9] has as its target T2, EINH186D (enzyme I N-terminal domain) N-terminal domain (Streptomyces coelicolor, UniProt Q9KZP1).
T2 chain: T1 chain with H186D
The experiment in a line: ITC.

Series [10] addresses T3, EINbsite + EINosite equimolar peptide mixture (Streptomyces coelicolor, UniProt Q9KZP1, C-terminal amidation, equimolar mixture of both peptides).
T3 chain 1: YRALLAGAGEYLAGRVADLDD
T3 chain 2: FVTEEGGPTSHSAILARA
Kind of series: ITC.

The next series concerns the target T4, EINbsite peptide (Streptomyces coelicolor).
T4 chain: FVTEEGGPTSHSAILARA-NH2
The experiment in a line: ITC.

The next series addresses T5, EINosite peptide (Streptomyces coelicolor, C-terminal amidation).
T5 chain: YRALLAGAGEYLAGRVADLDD
The experiment in a line: ITC.

The series “ITC dilution” concerns the molecule itself. The experiment in a line: ITC dilution.

On to HPrsc (from UniProt O50515), for which the Kd was 16 µM in series [1] and 10 µM in series [2].

As to “Histidine phosphocarrier protein HPr (HPr^bs)”, the n H was -0.31 protons in series [3], -0.31 protons in series [4], 0.17 protons in series [5] and 0.28 protons in [6].

For “N-terminal domain of enzyme I, wild type (EIN^sc)”, in series [7], the n H was 0.52 protons.

B1: HPrbs (histidine phosphocarrier protein) (protein)
chain: MKTQQFTVIDPLGIHARPASQLVAKATPFASAIEVRTEEKAANLKSILGVMGLALKQGSQFTLYVEGEDEDQAFEALATLLTEMGLAQ
Regarding B1, the Kd in [8] came out at 1.9 µM; in [9], 2.9 µM; in series [10] it was 4.8 µM; with EINbsite peptide it was 3.9 µM; in the series with EINosite peptide, 3 µM; in the series “ITC dilution” it was 6.5 µM.

What is called Kd is the equilibrium constant for the complex coming apart.
